Patent publication US11680267B2, “Co-regulatory sequences based on tetracycline and Cumate” (Shenzhen Eureka Biotechnology Co., Ltd., priority 2020, dated 2023)

Test system: 293T(T&C)-TRE3GCuO-Luc cells and 293T(T&C)-TRE3GCuO-BGI-Luc cells
Assay: Luciferase assay in stable cell lines under different combinations of DOX and Cumate (Example 5)
Format: cell-based
Conditions: for induced transcription activity: 24 hours, stable cell line
From the text: In this Example, stable cell lines, under complex regulation of Tet-ON and Cumate, TRE3GCuO or TRE3GCuO-intron, and with Luciferase as the reporter gene, were constructed. Then, based on these cell lines, induced transcription activities of the reporter gene under the following 4 induction conditions were detected: without inducer, Cumate only, DOX only or both DOX and Cumate inducers. In this Example, the Luciferase reporter gene was taken as an example, and in principle, the method of the present disclosure was not affected by the nucleic acid fragment of interest. The specific experimental methods were as follows:
293T cells were seeded at 1.5E+06 cells per 60 mm culture dish, and cultured in DMEM (Sigam, D6429) complete medium supplemented with 10% FBS (ExCell, 11H116) at 37° C. and 5% CO 2. After 24 hours of culture, transfection was carried out according to the PEI method. During transfection, 500 μL of transfection reagent which contained 5.5 ug of total plasmid was added to each 60 mm culture dish, and the mass ratio of total plasmid to PEI MAX (Polysciences, 24765-1) was 1:4; and thereby 3 Luciferase stable cell lines were constructed. The transfection plasmids were transfected at the 19BF075:19BF229:18BF019 molar ratio of 5:5:1 to obtain 293T(T&C)-CMV-BGI-Luc cells; the transfection plasmids were transfected at the 19BF075:19BF235:18BF019 molar ratio of 5:5:1 to obtain 293T(T&C)-TRE3GCuO-Luc cells; the transfection plasmids were transfected at the 19BF075:19BF237:18BF019 molar ratio of 5:5:1 to obtain 293T(T&C)-TRE3GCuO-BGI-Luc cells. The plasmid and PEI MAX were mixed uniformly, and then put into a culture dish after standing for 15 minutes. 3 hours after transfection, the medium was changed to a complete DMEM medium, and the transfection operation was completed. After 24 hours of transfection, the cells were digested with trypsin and all seeded in a 100 mm culture dish (Corning, 430167), and 200 μg/ml of hygromycin (Sangon Biotech A600230-0001) drug screening was performed for at least three passages. After the growth of cells under the pressure of drug screening was consistent with that of the original 293T cells, the above 3 cells were diluted to 1 cell per well by a limiting dilution method and seeded in a 96-well plate; when the cells grew to about 50% of the bottom area of the well, the wells with strong EGFP green fluorescence intensity and uniform luminescence were selected under the fluorescence microscope, and 3 independent clones of each cell were selected for the following experiments.
For the above 3 cells, 3 independent clones for each cell were seeded into a 96-well plate (Corning 3916) at 2.5E+04 cells per well, with 8 wells per clone, and the medium was 100 microliters of DMEM complete medium. After 24 hours of culture, the medium was replaced and the following reagents were added into the duplicate wells of the 8 wells for each cell: (1) the same amount of medium, (2) Cumate at a final concentration of 200 ug/ml, (3) DOX at a final concentration of 1 ug/ml, or (4) DOX at a final concentration of 1 ug/ml and Cumate at a final concentration of 200 ug/ml. After 24 hours of further culture, relative light unit RLU of each well was detected using a Steady-Glo® Luciferase Assay System (Promega, E2610) kit according to the instruction (Promega, FB037), wherein the detection instrument was a fluorescence microplate reader (Perkin Elmer Victor V).

B1: TRE3GCuO: Tet-On (7xTetO of TRE3G) and Cumate complex response element, CuO 50 bp behind the TATA box (SEQ ID NO: 23) (nucleic acid)
DNA: TCCCTATCAGTGATAGAGAACGTATGAAGAGTTTACTCCCTATCAGTGATAGAGAACGTATGCAGACTTTACTCCCTATCAGTGATAGAGAACGTATAAGGAGTTTACTCCCTATCAGTGATAGAGAACGTATGACCAGTTTACTCCCTATCAGTGATAGAGAACGTATCTACAGTTTACTCCCTATCAGTGATAGAGAACGTATATCCAGTTTACTCCCTATCAGTGATAGAGAACGTATTAGGCGTGTACGGTGGGCGCCTATAAAAGCAGAGCTCGTTTAGTGAACCGTCAGATCGCCTGGAGCAATTCCACATACAAACAGACCAGATTGTCTGTTTGTT
modifications: TRE3GCuO50 response element sequence
induced transcription activity (adding both DOX 1 ug/ml and Cumate 200 ug/ml): 7.54E+06 RLU | induced transcription activity relative to no induction (adding both DOX and Cumate): 2381.05 times | induced transcription activity relative to only adding Cumate (adding both DOX and Cumate): 552.99 times | induced transcription activity relative to only adding DOX (adding both DOX and Cumate): 35.19 times | maximum induced transcription activity as % of that of CMV promoter (both DOX and Cumate inducers added): 47.84% | induced transcription activity relative to no induction (only adding Cumate): 4.31 times | induced transcription activity (only adding Cumate 200 ug/ml): 1.36E+04 RLU | induced transcription activity relative to no induction (only adding DOX): 67.66 times | induced transcription activity relative to only adding Cumate (only adding DOX): 15.71 times | induced transcription activity (only adding DOX 1 ug/ml): 2.14E+05 RLU
